# Test results reported in PMC10244618.
# Where “and” joins values, the source holds several entries; their conditions need not be identical. Identical values can stand only once.
# B1: NF2 (merlin) isoform 7, human, full length (507 aa, lacks exons 2-3 = isoform-1 residues 39-121; exon-16 C-terminus), P35240-4 (parent)
# chain: MAGAIASRMSFSSLKRKQPKTFTVRIVTMDAEMEFNCEVKKQILDEKIYCPPEASVLLASYAVQAKYGDYDPSVHKRGFLAQEELLPKRVINLYQMTPEMWEERITAWYAEHRGRARDEAEMEYLKIAQDLEMYGVNYFAIRNKKGTELLLGVDALGLHIYDPENRLTPKISFPWNEIRNISYSDKEFTIKPLDKKIDVFKFNSSKLRVNKLILQLCIGNHDLFMRRRKADSLEVQQMKAQAREEKARKQMERQRLAREKQMREEAERTRDELERRLLQMKEEATMANEALMRSEETADLLAEKAQITEEEAKLLAQKAAEAEQEMQRIKATAIRTEEEKRLMEQKVLEAEVLALKMAEESERRAKEADQLKQDLQEAREAERRAKQKLLEIATKPTYPPMNPIPAPLPPDIPSFNLIGDSLSFDFKDTDMKRLSMEIEKEKVEYMEKSKHLQEQLNELKTEIEALKLKERETALDILHNENSDRGGSSKHNTIKKPQAQGRRPICI
# Variants of: B1
# Experiment: reverse yeast two-hybrid deep mutational scan (rY2H-seq): NF2 isoform 7 mutant library as bait mated with wild-type prey strains; selection on medium lacking adenine for non-interacting pairs; NextSeq paired-end sequencing; enrichment vs …
# Conditions: yeast diploids after mating (RBait_S3 x RPrey_S3), 30 °C, selection for reporter genes on NB agar, HIGHER = WEAKER BINDING (the opposite of display enrichments): higher = stronger loss of interaction: reverse Y2H selects yeast in which bait and prey do NOT interact (growth without adenine), so a …, hits-only table, scale: rY2H score, numbering: uniprot, sequence starts at 1
# [1] = with EMILIN1 (elastin microfibril interfacer 1), Q9Y6C2, human ABL2 co-expressed as the kinase-dead K35M mutant …
# [2] = with NF2 C-terminal domain (wild type; homomeric NF2-NF2 interaction), P35240, human ABL2 co-expressed as the kinase-dead K35M mutant …, partner unresolved
# [3] = with PIK3R3 (phosphatidylinositol 3-kinase regulatory subunit gamma), Q92569, human tyrosine kinase ABL2 co-expressed as the active kinase …
# [4] = with KDM1A (lysine-specific histone demethylase 1A; the table's label AOF2 is a gene synonym of KDM1A), O60341, human tyrosine kinase ABL2 co-expressed as the active kinase …
# [5] = with KDM1A (lysine-specific histone demethylase 1A; the table's label AOF2 is a gene synonym of KDM1A), O60341, human ABL2 co-expressed as the kinase-dead K35M mutant …
# [6] = with EMILIN1 (elastin microfibril interfacer 1), Q9Y6C2, human tyrosine kinase ABL2 co-expressed as the active kinase …
Variant,enrichment [1],enrichment [2],enrichment [3],enrichment [4],enrichment [5],enrichment [6]
A385K,1.6,3.03,1.74,,,
G419K,1.49,,,,,
P396A,1.61 and 2.83,,1.66,4.55,,
I418L,6.81,,,,6.54,
P410L,3.26 and 3.02,2.14 and 2.85,2.56,6.37 and 2.41,5.35 and 7.09,5.11 and 2.8
E177L,4.46,5.54,,,,2.3
T308D,4.89,2.47,,,2.33,2.02
E338K,2.51,,,,,
E164L,2.39,,2.07,,3.94,
S172P,1.73,,2.04 and 2.73,,1.94,
P174T,2.95,,2.16 and 1.7,,1.5 and 1.57 and 1.64,
L342A,2.66,,,,2.28,3.99
K246R,1.4,,,,,1.64
E339T,3.93,2.08,,,2.02,5.99
R226G,1.63,,,,,
R335K,3.27,,,3.19,4.54 and 2.35,2.33
C217Y,2.4,,,,2.94,1.59
A368K,3.84 and 3.98,5.98,,,10.5 and 10.2,
D430L,1.61,,,,3.75,
E274K,1.67,,,,,
N402T,1.9,,,,,
E311A,1.44,,,,,
T429L,1.9,,,,,
T332D,4.98 and 1.87,,,,,2.07
K388A,1.75,,3.36,1.43 and 2.22,2.24 and 3.28,

Variant,enrichment [1],enrichment [2],enrichment [3],enrichment [4],enrichment [5],enrichment [6]
R263K,2.14,,,,1.91,
V347E,2.33 and 1.87,2.41,,,3.23,
G419A,1.71,,,1.44,,
G419V,2.41,,,,,
F415K,2.05,,2.73,,1.8 and 3.49,
E349T,2.72 and 2.96,,,2.75,3.54 and 3.02,3.96 and 3.74
R328E,2.55,,3.12,,,
N482K,2.14,,,,,
Y398E,8.39,3.87 and 6.52,,,,15.7
E259L,1.55,,,,3.91 and 3.57,1.72
E359K,1.99,,,,7.74,1.99
E259V,2.5,2.03,4.06 and 2.02,2.08,2.8,1.65
P163L,3.08,1.78,12.3,5.95,7.24,3.88
R341K,2.64,,,,7.07,3.2
D420A,2.04,2.35,,,,
Q373E,3.3,1.81,,,2.85,
P497L,2.21,2.98,,5.64,,2.34
I141A,20.7,,,30.8,21.3 and 14.9,
L353T,8.41,,,,,
Q345T,23.4,,,6.27,21.7,13.4
Q64A,2.42,,8.91 and 12.3,,,
D299A,1.54,,,,,
S483A,2.27,,,,2.24,3.86 and 4.2
I334T,1.75,,,,2.69 and 1.45,1.68 and 2.52
E164A,2.89 and 5.48,1.48,6.96,,5.57,2.44

Variant,enrichment [1],enrichment [2],enrichment [3],enrichment [4],enrichment [5],enrichment [6]
I412L,2.06,,2.03,,,
K170R,2.58,,2.74,3.72,,
R341L,2.12 and 2.16,1.59,,,4.47 and 2.73,
I412A,2.67,,,,,3.34
E367A,1.72,,2.99,4.1 and 4.23,,3.25
R328A,2.29,,,,1.66,
E272K,1.57,3.42 and 3.26,2.55 and 1.61 and 4.74,1.77,3.01 and 2.96,
K318E,3.15,,,1.81,,
V352E,1.87,,,,,
P400A,2.14,,,,,
L158A,2.28,1.57,,11,,2.56
D484A,2.01,,,,,
E382G,1.92,,,,,
M357K,2.48,,,,,
L417K,1.65,,1.72,2.29,,
E265K,4.95,,,,,
M280E,2.68,,,,,
A333L,2.47,,,1.46,1.58,
D430K,3.35,,,,,
A316S,3.61,,,,,
R383L,3.93 and 2.71,,,,,
R104E,3.93,,,,,
D30A,6.06,,,,,
G135E,2.42,,,,2.61,
R364E,1.5,2.76,,,,5.32

Variant,enrichment [1],enrichment [2],enrichment [3],enrichment [4],enrichment [5],enrichment [6]
E338L,2.57,3.03,,,5.57,2.53
I329E,2.28,2.93,,3.19 and 2.75,,1.79 and 3.15
D411K,2.21,,,,,
K313A,2.05,,3.82,3.82,1.63,
H491K,1.7,2.48,,,,
L342K,1.65 and 3.1,,,1.63,6.76 and 4.54,2.14 and 6.11
L300E,5.44,4.73 and 3.13,,,,5.18
Q324A,1.9,,,,2.45,3.69
Q82A,4.41,2.07,,4.66,9.08,
N165L,3.15 and 2.54,2.17 and 4.23,8.43,1.81,6 and 7.17,3.7
A319K,3.24,,,,7.16,1.77
A320L,2.52,,,,4.56 and 4.18,3.39
L151R,3.32 and 4.31,,,,3.69,6.23 and 2.68
E367L,6.79,,,,,1.94
D484L,2.38,,,4.48,,
L301K,4.43,,,,,
L158K,2.72,,,,,3.39 and 2.28
Y398L,1.89,,1.96,,,2.45
A319E,2.5,1.39 and 4.04,4.37,5.63,,5.2 and 4.57
R471E,8.81,,,,,3.88
G157A,6.42,2.36 and 4.41,,5.01,,
S55E,6.87,,,7.48,5.38,5.24
